Reference: patent US11674967B2, “Method of identifying potential inhibitors of APO TNFα trimers” (UCB BIOPHARMA SRL, priority 2015, dated 2023)

T1: Mouse TNFα (Mus musculus, UniProt P06804)
T1 construct: made in house
T1 sequence (P06804 80-235 limits assumed): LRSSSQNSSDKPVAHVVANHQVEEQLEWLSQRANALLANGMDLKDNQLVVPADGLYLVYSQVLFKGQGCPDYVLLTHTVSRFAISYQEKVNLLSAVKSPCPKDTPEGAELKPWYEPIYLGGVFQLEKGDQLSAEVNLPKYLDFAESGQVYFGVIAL

B1: CA185_01979: conformation-selective antibody, light chain SEQ ID NO: 26, heavy chain SEQ ID NO: 27 (antibody)
heavy: EVHLVESGPGLVKPSQSLSLTCSVTGYSITNSYWDWIRKFPGNKMEWMGYINYSGSTGYNPSLKSRISISRDTSNNQFFLQLNSITTEDTATYYCARGTYGYNAYHFDYWGRGVMVTVSSAKTTPPSVYPLAPGSAAQTNSMVTLGCLVKGYFPEPVTVTWNSGSLSSGVHTFPAVLQSDLYTLSSSVTVPSSTWPSETVTCNVAHPASSTKVDKKIVPRDCGCKPCICTVPEVSSVFIFPPKPKDVLTITLTPKVTCVVVDISKDDPEVQFSWFVDDVEVHTAQTQPREEQFNSTFRSVSELPIMHQDWLNGKEFKCRVNSAAFPAPIEKTISKTKGRPKAPQVYTIPPPKEQMAKDKVSLTCMITDFFPEDITVEWQWNGQPAENYKNTQPIMDTDGSYFVYSKLNVQKSNWEAGNTFTCSVLHEGLHNHHTEKSLSHSPGK
light: DIQMTQSPASLSASLEEIVTITCQASQDIGNWLSWYQQKPGKSPHLLIYGTTSLADGVPSRFSGSRSGTQYSLKISGLQVADIGIYVCLQAYSTPFTFGSGTKLEIKRTDAAPTVSIFPPSSEQLTSGGASVVCFLNNFYPKDINVKWKIDGSERQNGVLNSWTDQDSKDSTYSMSSTLTLTKDEYERHNSYTCEATHKTSTSPIVKSFNRNEC
modifications: 1979 HC mIgG1 full; 1979 LC Kappa full

Legend:
TNFα [1] = molecular target: T2, TNFα (Homo sapiens, UniProt P01375); experiment: SPR on Biacore 4000 against immobilised soluble TNFα; type: binding; conditions: up to 100 μM
Description: In another experiment, BIO8898 was tested against the immobilised soluble form of CD40L and the soluble form of TNFα by SPR on a Biacore 4000 machine.

[2] = molecular target: human TNFα complexed with compound (15) (Homo sapiens, UniProt P01375); experiment: Size exclusion chromatography of Fab with human TNFα complexed with compound (15); type: binding; conditions: mouse Fab fragments
Mouse TNFα = molecular target: T1, Mouse TNFα; experiment: BIAcore antibody binding with mouse TNFα +/- compound
Description: (§1) Surface plasmon resonance was performed at 25° C. using a BIAcore T200 (GE Healthcare). Anti-Mouse Fc (Jackson 115-006-071) was immobilised on a […] Sensor Chip (GE Healthcare) via amine coupling chemistry to a capture level of 6000 response units. HBS-EP buffer (10 mM HEPES pH 7.4, 0.15 M NaCl, 3 mM EDTA, 0.05% (v/v) surfactant P20—GE Healthcare)+1% DMSO was used as the running buffer.
(§2) The surface was regenerated at a flow-rate of 10 μl/min by a 60 s injection of 40 mM HCl×2 and a 30 s 5 mM NaOH. Double referenced background subtracted binding curves were analysed using the T200 Evaluation software (version 1.0) following standard procedures. Kinetic parameters were determined from the fitting algorithm.

TNFα [3] = molecular target: T2, TNFα; experiment: BIAcore antibody binding with human TNFα +/- compound; design: made in house
Description: as §1, §2

T2 sequence (P01375 77-233 limits assumed): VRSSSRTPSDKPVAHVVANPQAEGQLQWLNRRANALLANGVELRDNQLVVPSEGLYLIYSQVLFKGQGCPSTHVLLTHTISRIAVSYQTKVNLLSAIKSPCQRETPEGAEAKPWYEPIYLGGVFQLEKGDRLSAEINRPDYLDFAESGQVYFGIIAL
Sequence of human TNFα complexed with compound (15) (P01375 77-233 limits assumed, one chain of several): as the sequence (P01375 77-233 limits assumed) above

Row | Molecule | binding to TNFα (TNFα [1]) | stoichiometry of Fab binding to trimer-compound complex [2] | Kd (Mouse TNFα; Mouse TNFα + compound (15)) [nM] | ka (Mouse TNFα; Mouse TNFα + compound (15)) [M⁻¹ s⁻¹] | kd (Mouse TNFα; Mouse TNFα + compound (15)) [s⁻¹] | ka (Mouse TNFα; Mouse TNFα + compound (39)) [M⁻¹ s⁻¹] | kd (Mouse TNFα; Mouse TNFα + compound (39)) [s⁻¹] | Kd (Mouse TNFα; Mouse TNFα apo) [nM] | ka (Mouse TNFα; Mouse TNFα apo) [M⁻¹ s⁻¹] | kd (Mouse TNFα; Mouse TNFα apo) [s⁻¹] | ka (TNFα [3]; Human TNFα + compound (15)) [M⁻¹ s⁻¹] | kd (TNFα [3]; Human TNFα + compound (15)) [s⁻¹] | ka (TNFα [3]; Human TNFα + compound (39)) [M⁻¹ s⁻¹] | kd (TNFα [3]; Human TNFα + compound (39)) [s⁻¹] | ka (TNFα [3]; Human TNFα apo) [M⁻¹ s⁻¹] | kd (TNFα [3]; Human TNFα apo) [s⁻¹]
1 | O=C(NCc1cccc(-c2ccccc2)c1)c1cc(-c2cc(C(=O)NC(C(=O)O)C3CCCCC3)nc(C(=O)N3CCCC3CN3CCCC3)c2)cc(C(=O)N2CCCC2CN2CCCC2)n1 (stereo not shown) [BIO8898] | no binding was detected |  |  |  |  |  |  |  |  |  |  |  |  |  |  | 
2 | B1 |  | 1 Fab:1 TNFα trimer | 0.38 | 160000 | 6.3e-05 | 190000 | 3.5e-05 | 27 | 72000 | 0.002 | 470000 | 1.6e-05 | 570000 | 3.3e-05 | 110000 | 0.00071
